The values that follow come from patent US7211395.

For the experiment, the target named is human serum albumin (HSA) (human), P02768. The experiment can be described thus: FP. The settings on record: modification not given.
By Kd is commonly meant the equilibrium constant for the complex coming apart. With AEGTGDFWFCDRIAWYAQHLCEFLDPEGGGK [DX-236 Ala mutant 120], the Kd amounted to 1300 nM.
As to AEGTGDFWFCDAIAWYPQHLCEFLDPEGGGK [DX-236 Ala mutant 124], the Kd is 1500 nM.
The figure for AEGTGDFAFCDRIAWYPQHLCEFLDPEGGGK [DX-236 Ala mutant 127] is 2300 nM; for AEGTGAFWFCDRIAWYPQHLCEFLDPEGGGK [DX-236 Ala mutant 129] it is 5100 nM; for AEGTGDFWFCDRIAWYPAHLCEFLDPEGGGK [DX-236 Ala mutant 119] it is 2200 nM.
With AEGTGDFWFCDRIAAYPQHLCEFLDPEGGGK [DX-236 Ala mutant 122] the figure was 1400 nM; with AEGTGDAWFCDRIAWYPQHLCEFLDPEGGGK [DX-236 Ala mutant 128], 5100 nM; with AEGTGDFWFCDRIAWAPQHLCEFLDPEGGGK [DX-236 Ala mutant 121], 1400 nM.
AEGTGDFWFCARIAWYPQHLCEFLDPEGGGK [DX-236 Ala mutant 125] gave a Kd of 5000 nM.
With AEGTGDFWFCDRIAWYPQHACEFLDPEGGGK [DX-236 Ala mutant 117] the figure was 2000 nM.
